Laboratory results taken from US20240309103A1 (Regeneron, published 2024).

T1: human NPR1 extracellular domain expressed with a C-terminal mouse IgG2a (hNPR1-mFc) (human)
T1 construct: also called hNPR1-Fc; human NPR1 dimer
T1 chain: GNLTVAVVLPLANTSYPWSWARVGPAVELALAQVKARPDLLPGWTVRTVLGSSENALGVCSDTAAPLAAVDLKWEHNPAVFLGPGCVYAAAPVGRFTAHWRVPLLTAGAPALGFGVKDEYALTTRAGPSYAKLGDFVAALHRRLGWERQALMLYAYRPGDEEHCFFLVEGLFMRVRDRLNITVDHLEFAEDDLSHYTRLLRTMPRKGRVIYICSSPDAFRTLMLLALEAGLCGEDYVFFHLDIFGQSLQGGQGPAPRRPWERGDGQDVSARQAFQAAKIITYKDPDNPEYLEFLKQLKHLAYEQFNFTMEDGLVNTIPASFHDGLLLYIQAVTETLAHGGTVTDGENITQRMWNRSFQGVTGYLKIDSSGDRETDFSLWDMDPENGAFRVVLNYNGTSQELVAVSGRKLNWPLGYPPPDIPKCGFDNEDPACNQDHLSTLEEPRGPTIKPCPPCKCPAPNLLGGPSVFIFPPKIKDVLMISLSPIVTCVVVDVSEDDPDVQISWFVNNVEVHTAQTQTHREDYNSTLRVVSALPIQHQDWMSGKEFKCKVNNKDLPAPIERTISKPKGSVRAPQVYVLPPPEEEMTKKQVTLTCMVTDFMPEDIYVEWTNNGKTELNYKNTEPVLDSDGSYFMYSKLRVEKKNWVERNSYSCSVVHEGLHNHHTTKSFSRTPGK

T2: monkey NPR1 extracellular domain expressed with a C-terminal myc-myc-hexahistidine (mfNPR1-MMH) (monkey, UniProt P16066 33-473 (human entry))
T2 construct: also called monomeric monkey NPR1
T2 chain: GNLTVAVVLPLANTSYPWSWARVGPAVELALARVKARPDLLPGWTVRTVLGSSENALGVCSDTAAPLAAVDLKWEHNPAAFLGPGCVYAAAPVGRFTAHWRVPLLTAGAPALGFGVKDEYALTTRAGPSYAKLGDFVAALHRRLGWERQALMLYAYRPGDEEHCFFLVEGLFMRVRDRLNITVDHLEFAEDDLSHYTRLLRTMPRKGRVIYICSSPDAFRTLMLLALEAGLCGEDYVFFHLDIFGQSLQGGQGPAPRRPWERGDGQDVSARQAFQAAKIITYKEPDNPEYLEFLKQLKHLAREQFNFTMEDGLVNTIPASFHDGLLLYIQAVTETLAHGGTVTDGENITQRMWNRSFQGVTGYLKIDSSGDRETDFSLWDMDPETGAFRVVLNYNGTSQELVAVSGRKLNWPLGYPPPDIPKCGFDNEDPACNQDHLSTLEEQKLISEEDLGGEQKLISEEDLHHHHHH

T3: mouse NPR1 extracellular domain expressed with a C-terminal mouse IgG2a (mNPR1-mFc) (mouse)
T3 chain: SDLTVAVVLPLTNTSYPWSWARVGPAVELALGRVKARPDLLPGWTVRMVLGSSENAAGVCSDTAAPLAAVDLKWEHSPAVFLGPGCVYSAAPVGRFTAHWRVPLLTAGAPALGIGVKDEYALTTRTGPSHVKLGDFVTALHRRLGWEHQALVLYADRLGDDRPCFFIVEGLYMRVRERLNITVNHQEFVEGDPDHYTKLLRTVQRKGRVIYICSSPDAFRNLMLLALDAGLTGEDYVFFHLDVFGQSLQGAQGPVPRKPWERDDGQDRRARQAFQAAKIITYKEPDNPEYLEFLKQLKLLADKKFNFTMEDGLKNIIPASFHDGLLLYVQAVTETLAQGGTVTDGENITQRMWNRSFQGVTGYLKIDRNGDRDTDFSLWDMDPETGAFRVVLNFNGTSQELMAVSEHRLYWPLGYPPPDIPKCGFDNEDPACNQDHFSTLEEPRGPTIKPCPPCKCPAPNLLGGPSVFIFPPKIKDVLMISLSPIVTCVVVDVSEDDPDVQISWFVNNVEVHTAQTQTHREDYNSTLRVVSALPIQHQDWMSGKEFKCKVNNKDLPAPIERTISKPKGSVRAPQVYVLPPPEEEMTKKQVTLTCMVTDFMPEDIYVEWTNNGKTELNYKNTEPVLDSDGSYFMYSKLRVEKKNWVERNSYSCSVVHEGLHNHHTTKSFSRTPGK

B1: mAb25479 (antibody, V domains shown)
VH: QVQLVQSGAEVKKPGASVKVSCKASGYTFTGYYIHWVRQAPGQGLEWMGWINPNSIGTNYAQKFQGRVTLTRDTSISTAYMELSSLRSDDTAVYYCARGGSSSYYYYYYGMDVWGQGTTVTVSS
VL: DIQMTQSPSSLSASVGDRVTITCRASQSIDNYLNWYQQKPGKAPKLLIYVASSLQSGVPSRFSGSGSGTDFTLTISSLQPEDFATYYCQQSYSTPLTFGGGTKVEIK
B2: mAb25491 (antibody, V domains shown)
VH: QVQLVQSGAEVMKPGASVKVSCKASGYTFTGYYIHWVRQAPGQGLEWMGWITPNSGATNYAQKFQGRVTLTRDTSISTAYMELTRLKSDDTAVYYCARGGQLEFFYYYYGMDVWGQGTTVTVSS
VL: DIQMTQSPSSLSASAGDRVTITCRASQSIDSYLNWYQQKPGKAPKLLISATSGFQSGVPSRFSGSGSGTDFTLTISSLQPEDFGTYYCQQSYTTPITFGQGTRLEIK
B3: mAb25545 (antibody, V domains shown)
VH: QVQLVESGGGLVKPGGSLRLSCAASGFTFSDYHLSWIRQAPGKGLEWVSYIRSSGRTIDYAASVKGRFTISRDNAKNSLYLQMNSLRVEDTAVYYCARENWIVLKVYAGIVGAPLDQWGQGTLVTVSS
VL: not shown

Tests used:
[1] = molecular target: T4, human NPR1 extracellular domain expressed with a C-terminal myc-myc-hexahistidine (hNPR1-MMH) (human, UniProt P16066 33-473); assay: SPR, mAb captured, 25 C
T4 construct: also called hNPR.mmh; monomeric human NPR1
Procedure: (§1) Equilibrium dissociation constant (KD) for different NPR1 reagents binding to purified anti-NPR1 monoclonal antibodies (mAbs) were determined using a real-time surface plasmon resonance based Biacore 4000 biosensor. All binding studies were performed in 10 mM HEPES, 150 mM NaCl, 3 mM EDTA, and 0.05% v/v Surfactant Tween-20, pH 7.4 (HBS-ET) running buffer at 25° C. and 37° C. The Biacore CM5 sensor chip surface was first derivatized by amine coupling with either mouse anti-human Fc specific mAb (GE Healthcare, #BR100839) or goat anti-human Fcy specific polyclonal antibody (Jackson ImmunoResearch Laboratories, #BR-1008-39) to capture anti-NPR1 mAbs.

[2] = molecular target: T1, human NPR1 extracellular domain …; assay: SPR, mAb captured, 25 C
Procedure: as §1

[3] = molecular target: T5, mouse NPR1 extracellular domain expressed with a C-terminal myc-myc-hexahistidine (mNPR1-MMH) (mouse, UniProt P18293 29-469); assay: SPR, mAb captured, 25 C
Procedure: as §1

[4] = molecular target: T2, monkey NPR1 extracellular domain …; assay: SPR, mAb captured, 25 C
Procedure: as §1

[5] = molecular target: T4, human NPR1 extracellular domain …; assay: SPR, mAb captured, 37 C
Procedure: as §1

[6] = molecular target: T1, human NPR1 extracellular domain …; assay: SPR, mAb captured, 37 C
Procedure: as §1

[7] = molecular target: T5, mouse NPR1 extracellular domain …; assay: SPR, mAb captured, 37 C
Procedure: as §1

[8] = molecular target: T2, monkey NPR1 extracellular domain …; assay: SPR, mAb captured, 37 C
Procedure: as §1

[9] = molecular target: T3, mouse NPR1 extracellular domain …; assay: SPR, Tables 21 to 26
Procedure: as §1

T4 sequence (P16066 other isoform, or with tags, fused parts or gaps): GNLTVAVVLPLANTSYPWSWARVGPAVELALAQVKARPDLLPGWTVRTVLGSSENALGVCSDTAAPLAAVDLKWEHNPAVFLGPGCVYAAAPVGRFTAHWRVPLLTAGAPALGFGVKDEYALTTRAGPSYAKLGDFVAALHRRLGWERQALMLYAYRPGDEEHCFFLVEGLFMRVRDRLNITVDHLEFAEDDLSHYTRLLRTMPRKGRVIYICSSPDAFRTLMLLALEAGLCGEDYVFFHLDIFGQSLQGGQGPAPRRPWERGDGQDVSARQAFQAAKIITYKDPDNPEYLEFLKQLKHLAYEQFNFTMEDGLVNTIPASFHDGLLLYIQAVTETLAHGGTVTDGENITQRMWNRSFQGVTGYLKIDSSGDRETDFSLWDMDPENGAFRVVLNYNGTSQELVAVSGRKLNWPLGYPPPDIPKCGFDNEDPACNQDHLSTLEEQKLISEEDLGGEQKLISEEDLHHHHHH

| Binder | 100 nM Ag Bound (RU) [1] [RU] | Kd [1] [nM] | koff [1] [s⁻¹] | kon [1] [M⁻¹ s⁻¹] | t½ [1] [min] | 100 nM Ag Bound (RU) [2] [RU] | Kd [2] [nM] | koff [2] [s⁻¹] | kon [2] [M⁻¹ s⁻¹] | t½ [2] [min] | 100 nM Ag Bound (RU) [3] [RU] | binding result [3] | 100 nM Ag Bound (RU) [4] [RU] | Kd [4] [nM] | koff [4] [s⁻¹] | kon [4] [M⁻¹ s⁻¹] | 100 nM Ag Bound (RU) [6] [RU] | 100 nM Ag Bound (RU) [7] [RU] | 100 nM Ag Bound (RU) [8] [RU] | binding result [9] | other results |
| --- | --- | --- | --- | --- | --- | --- | --- | --- | --- | --- | --- | --- | --- | --- | --- | --- | --- | --- | --- | --- | --- |
| B1 | 16 | 482 | 0.00673 | 14000 | 1.7 | 26 | 22.4 | 0.000852 | 38000 | 13.6 | 0 | no binding (tested: 100 nM) | 41 | 246 | 0.00682 | 27700 | 47 | 1 | 43 | no binding | t½ [4]: 1.7 min; 100 nM Ag Bound (RU) [5]: 16 RU; Kd [5]: 689 nM; koff [5]: 0.0157 s⁻¹; kon [5]: 22800 M⁻¹ s⁻¹; t½ [5]: 0.7 min; Kd [6]: 41.2 nM; koff [6]: 0.00139 s⁻¹; kon [6]: 33700 M⁻¹ s⁻¹; t½ [6]: 8.3 min; Kd [8]: 360 nM; koff [8]: 0.0142 s⁻¹; kon [8]: 39600 M⁻¹ s⁻¹; t½ [8]: 0.8 min |
| B2 | 37 | 37.6 | 0.000983 | 26200 | 11.7 | 36 | 1.24 | 0.000124 | 101000 | 92.8 | 0 | no binding (tested: 100 nM) | 81 | 30.5 | 0.00128 | 42000 | 70 | 0 | 106 | no binding | t½ [4]: 9 min; 100 nM Ag Bound (RU) [5]: 51 RU; Kd [5]: 127 nM; koff [5]: 0.00453 s⁻¹; kon [5]: 35600 M⁻¹ s⁻¹; t½ [5]: 2.5 min; Kd [6]: 8.66 nM; koff [6]: 0.000363 s⁻¹; kon [6]: 41900 M⁻¹ s⁻¹; t½ [6]: 31.8 min; Kd [8]: 78.4 nM; koff [8]: 0.00457 s⁻¹; kon [8]: 58300 M⁻¹ s⁻¹; t½ [8]: 2.5 min |
| B3 |  |  |  |  |  | 7 |  |  |  |  | 0 | no binding (tested: 100 nM) | 4 |  |  |  | 15 | 1 | 10 | no binding |  |
